This series concerns the molecule itself. Nature of the series: X-ray crystallography, BAR/acetyl-CoA and BAR/CoA/phosphinothricin complexes. The protocol:
BAR protein was incubated with 1 mM acetyl-CoA for >2 hour prior to setting crystal trays. Crystals of BAR were obtained after 3 days at 20° C. in hanging drops containing 1 μL of protein solution (7.5 mg/ml) and 1 μL of reservoir solution (0.18 M calcium acetate, 0.1 M Tris-HCl pH 7, 18% (w/v) PEG 3000, 0.2% N-nonyl β-D-glucopyranoside, 1 mM acetyl-CoA). Several crystals were soaked in reservoir solution supplemented with 30 mM L-phosphinothricin for 30-60 min before freezing. Crystals were frozen in reservoir solution supplemented with 15% ethylene glycol. […] Co-crystallization screens and soaking experiments were performed using aminoadipate and tryptophan at final concentrations between 5-30 mM. However, we could not identify electron density supporting the presence of these substrates within the resolved crystal structures.
X-ray diffraction data were collected on the 24-ID-C beam line of the Structural Biology Center at the Advanced Photon Source (Argonne National Laboratory) equipped with a Pixel Array Detector (Pilatus-6MF). […] Initial phases were determined by molecular replacement using Phaser under Phenix (Adams, P. D. et al., Acta Crystallographica. Section D, Biological Crystallo. 66, 213-221, (2010)). […]

B1: Wildtype bialaphos resistance (BAR) protein from Streptomyces hygroscopicus (enzyme)
chain: MSPERRPADIRRATEADMPAVCTIVNHYIETSTVNFRTEPQEPQEWTDDLVRLRERYPWLVAEVDGEVAGIAYAGPWKARNAYDWTAESTVYVSPRHQRTGLGSTLYTHLLKSLEAQGFKSVVAVIGLPNDPSVRMHEALGYAPRGMLRAAGFKHGNWHDVGFWQLDFSLPVPPRPVLPVTEI
notes: the entries describe its self-association into a homodimer in the crystal; Expressed in E. coli from pProEX Hta as 6xHis-BAR; Crystallised with acetyl-CoA, or with CoA and phosphinothricin; also called WT BAR; wild-type BAR
For B1, the binding result is “binds”.
